Measurements as given in the nanobody polyreactivity screen of Harvey et al. (2022).

Assay: yeast display, Sf9 membrane polyspecificity reagent, FACS + sequencing; frameworks hold sequencing errors
How it was run: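 Synthetic nanobody libraries on Saccharomyces cerevisiae BJ5465 were galactose-induced for 36–48 hours, stained 1 hour at 4 °C with 10% biotinylated, detergent-solubilized Sf9 membrane reagent and enriched on streptavidin microbeads. FACS then separated cells into low and high (top ~1%) gates by anti-HA (expression) and streptavidin (reagent binding) fluorescence. Genes were colony-PCR amplified, MiSeq 2 × 250 sequenced and CDR-length filtered. A clone's polyreactivity label is that of its gate of origin.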

Sequence	polyreactivity (PSR sort gate)
QVHLVESGGGLVQAGGSLRLSCAASGSTFRKYAMGWYRKAPGKERELDAAITSSGGRTYYADSVKGRFTISRDNAKNSVYLPLNSLKPEDTAVYYCAAGGPRFYSWRSEYDYWGQGTQVTVLS	high polyreactivity
QVHLVESGGGLVQAGGSLRLSCAASGSTFRYYAMGWYRQAPGKERELVATINRSGGSTYYADSVKGRFTISRDNAKNTVYLQMNSLKPEDTAVYYCAATHYYSHFLWFASNYDYWGQGTQVTVSS	high polyreactivity
QVHLVESGGGLVQAGGSLRLSCAASGSTFVRNVMGWYRQAPGKERELVAAITRSGDTTYYADSVKGRFTISRDNAKNTVYLQMNSLKPEDTAVYHCAKRTFVRRGSIYPIDDYWGQGTQVTVSS	low polyreactivity
QVHLVESGGGLVQAGGSLRLSCAASGSTFVYNTMGWYRQAHGKERELVASISSDGNTDYADSVKGRFTISRDNAKNTVYVQMNSLKPEDTAVYYCAARYYYDWRFVGYDYWGQGTQVTVSS	low polyreactivity
QVHLVESGGGLVQAGGSLRLSCAASGSTFWYNAMRWYRQAPGKERELVASIDDIGGSTYYADSVKGRFTISRDNAKYTVYLQMNSLKPEDTAVYYCAKDYGSSYVTDSDYWGQATQVTVSS	low polyreactivity
QVHLVESGGGLVQAGGSLRLSCAASGSTFYANAMGWYRQAPGTERELVAAITSGGSTNYADSVKGRFTISRDNAKNTFYLQMNSLKPEDTAVYYCAADGGDQERGDYWGQGTQVTVSS	low polyreactivity
QVHLVESGGGLVQAGGSLRLSCAASGSTFYVYAMGWYRQAPGKERELVAAISTSTGNTYYADSVKGRFTISRDNAKNTVYLQMNSLKPEDSAVYDCANSGSSSHYYSWGQGTQVTVSS	low polyreactivity
QVHLVESGGGLVQAGGSLRLSCAASGSTFYYYVMGWYRQAPGKERELVAAINISGGNTYYADSVKGRFTISRDNAKNTVYLKKNSLIPEDTAVYYCAADYRSSRTTEYYYWGQGTQVTVSS	low polyreactivity
QVHLVESGGGLVQAGGSLRLSCAASGSTIDIYDMGWYRQAPGKERELVAAISIGTYADSVKGRFTISRDNAKNTVYLQMNSLKPEDTAVYYCAAQTDTWGYGYDYWGQGTQVTVSS	high polyreactivity
QVHLVESGGGLVQAGGSLRLSCAASGSTIRFNAMGWYRQAPGKERELVAAISGSGGSTYYADSVKGRFTISRDNAKKTVYLQMNSLKPEDTAVYYCAASASSRSYFKSYYWGQGTQVTVSS	high polyreactivity
QVHLVESGGGLVQAGGSLRLSCAASGSTIYYNAMGRYRQAHGKERELVPRISRSGGSTYADSVKGRFTISRDNANNTVYLQMNSLKPEDTAVYYCNADPWWRFDYWGQGTQVTVSS	low polyreactivity
QVHLVESGGGLVQAGGSLRLSCAASGSTKGNNAMGWYRQATGKERELVAAISTRGGSTYYADSVKGRFTISRDNAKNTVYLQMNSLKPEDTAVYYCAADFGQYHGAVRKMDYWGQGTQVTVSS	low polyreactivity
QVHLVESGGGLVQAGGSLRLSCAASGVIFFYYAMGWYRQAPGKESELVAVIDRSGGTTYYADSVKGRFTISRDNAKNTVYLQMNSLKPEDTAVYYCNADDFTYPSGWGFIYDYWGQGTQVTVSS	low polyreactivity
QVHLVESGGGLVQAGGSLRLSCAASGYIFKVNAMGWYRQATRKERELVAAISSDGGSTYADSVKGRFTISRDNAKNTVYLEFYSLKTEDTAVYYCNVDLESERDPPKYVYWGQGTQVTVSS	low polyreactivity
QVHLVESGGGLVQAGGSLRLSCAASGYTFSRNAMGWYRQAPGKERELVASISSRGGSTRYADSVKGRFTISRDNAKNTVYLQMNSLKPEDTAVYYCAVRGLYSPFTYGYWGQGTQVTVSS	high polyreactivity
QVHLVESGGGLVQAGGSLRLSCAASGYTFYANAMGWYRQAPGKEREFVASITWSGGSTYYADSVKGRFTISRDNAKNTVYLQKNSLKPEDTAVYYCAAESWFKYDYWGQGTQVTVSS	low polyreactivity
QVHLVESGGGLVQAGGSLRLSCAASGYTSKTYAMGWYRQAPGKEMELVAAINWGSGSTYYADSVKGRFTISRDNAKNTVYLQMNSLKPEDTAVYYCAAEGYYNWYVGYGYWGQGTQVTVSS	high polyreactivity
QVHLVESGGGLVQAGGSLRLSCAATGSTFPSYTMGWYRQAPGKERELVAVITLRGGSTYYADSVKGRFTISRDNAKNTVYLQMNSLKPEDTAVYYCAANGQLQGWFDMYYWGQGTQVTVSS	low polyreactivity
QVHLVESGGGLVQAGGSLRLSCADSGSTFVAYAMGWYRQAPGKERDLVAAISKSGVRTYYADSVKGRFTISRDNAKNTVYLVMISLKPEDNAVYVCAADSGDLWGPFGYWGQGTQVTVSS	low polyreactivity
QVHLVESGGGLVQAGGSLRLSCAPSGRIFFPYAMGWYRQAPGKEREFVAAIRRSGGSTYYADSVKGRFTISRDNAKNTVYLQMNSLKPEDTAVYYCNAPLKRYGYYKYGYWGQGTQVTVSS	high polyreactivity
QVHLVESGGGLVQAGGSLRLSCASSGRIFEAYAMGWYRQAPGKERELVAAISGSGGSTYYADSVKGRFTISRDNAKNTVYLQMNSLKPEDTAVYYCAARYFVGKGLGYWGQGTQVTVSS	high polyreactivity
QVHLVESGGGLVQAGGSLRLSCASYGRTFGIYAMGWYRQAPGKERELVATISWRGGSTYYADSVKGRFTISRDNAKNTVYLQMNSLKPEDTAVYYCAAETWYSGYTYDYWGQGTQVTVSS	low polyreactivity

Sequence	polyreactivity (PSR sort gate)
QVHLVESGGGLVQAGGSLRLSCDASGITFRRYGMGWYRQAPGKERELVATITSSVGSRTYYADSVKGRFTISRDNAKNTVYLQMNSLKPEDTAVYYCAADHRVYDYEYWGQVTQVTVSS	low polyreactivity
QVHLVESGGGLVQAGGSLRLSCDASGSIFNTYAMGWYRQAPGKESELVATITSGDRTYYADSVNGRFTISRDNAKNSVYLQMNSLNPEDTAVYYCAKRHWFQYRRPDLGRFDYWGQGTQVTVSS	high polyreactivity
QVHLVESGGGLVQAGGSLRLSFAASGIILYDYAMGWNRQAPGKEREMVAGINRSGGITYYADSVKGRFTISRDNAKNTVYFQMNSLIPEDTAVYYCNAVFRYGATRSYRYDYWGQGTQVTVSS	high polyreactivity
QVHLVESGGGLVQAGGSLRLSFAASGSIFYFNAMGWYRQAPGKERELVAAINYSGGSTYYADSVKGRFTISRDNAKNTVYLQRNSLKPEDTAVYYCAAVTYFGWYPYRMEYWGQGTQVTVSS	high polyreactivity
QVHLVESGGGLVQAGGSLRLSFAASGSTFEDNAMGWYRQAPGKERELVAGISTNGGSTSYADSVKGRFTISRDNAKNTVYLQMNSLKPEVTAVYYCAKGLYVQFDYWGQGTQVTVSS	low polyreactivity
QVHLVESGGGLVQAGGSLRLSFAASGYTLSDNAMGWYRQAPGKERELVATIDFGGGSTYYADSVKGRFTISRDNAKNTVYLQRNSLKPEDTAVYYCNTEWTSLSTSSLGGRYDHWGQGTQVTVSS	low polyreactivity
QVHLVESGGGLVQAGGSLRLSFAAYGIIFKYYAMVWYRQAPGKERELVASITDRGGSTYYSDSLKGRFTISRDNAKNTFYLQMNSLKPEDTAVYYCAAVPSTGKSGIRGGYWGQCTQVTVSS	high polyreactivity
QVHLVESGGGLVQAGGSLRLSSAASGITFVINAMGWYRQAPGKERELVASINFDTDTTYADSEKGRFTISRDNAKNTVYLQMNSLKPEDTAVYYCNADLPWARHTVDSIEFDYWGQGTQVTVSS	low polyreactivity
QVHLVESGGGLVQAGGSLRLSSPASGRIFQDNAMGWYRQAPGKERELVAAISSSGGSTYYADSVKGRFTISRDNAKNTVYLHMNSLKPEDTAVYYCAADYYWYWDLYDYWGQGTQVSVSS	high polyreactivity
QVHLVESGGGLVQAGGSLRLTCAASGFTFQGYAMGRYRQAPGKERELVAAISIGGVRTYYADSVKGRFTISRDNAKNTVYLQMNSLKPEDTAVYYCAKDGSKLSSYNYWGQGTQVTVSS	high polyreactivity
QVHLVESGGGLVQAGGSLRLTCAASGIIFRWYAMGWYRQAPGKERELVAAISSGGGRTHYADSVKGRFTISRDNAKNTVYLQMNSLKPEDTAVYYCAAALRGQSSRFDYWGQGTQVTVSS	high polyreactivity
QVHLVESGGGLVQAGGSLRLTCAASGSIFRFYTMGWYRPATGKERELVATISRGGSTNYADSVKGRFTISRDNAKNSVSLQMNSLKPEVTGVYYCNFGALYSTYWGYGYDYWGQGTQVTVSS	high polyreactivity
QVHLVESGGGLVQAGGSLRLTCSASGFTFSTYAMGWYRPAPGKESEMVAVISWNGGSTYYADTVKGRFTISRYNAKNTVYLQMNSLKTEDTAVYYCAARGSFKKGYWGQGTQVTVSS	high polyreactivity
QVHLVESGGGLVQAGGSLRVSCAASGSIFLDNAMGWYRQAPGKERELVADISYSGGSTYYADSVKGRFTISRDNAKNTVYLQMISLKPEDTAVYYCAAGVQLTVPPLRSSVTEYDYWGQGSQVTVSS	low polyreactivity
QVHLVESGGGLVQAGGSLRVSCAASGSIFPDNAMGWYTQAPGKERELVAAITFSGGRTYYADSVKGRFTISRDNAKNTVYLQMNSQKPEDTAVYYCATAKGVKLYRYPDYSGYYPYDYWGQGTQVTVSS	high polyreactivity
QVHLVESGGGLVQAGGSLSLSCAASGFTYTSYAMGWYRQAPGTEREFVAAIRRSGSGTYYADSVKGRFTISRVNAKNTVYLQMNSLNPEDTAVYYCAVVPPRLYYHYDYWGQGTQVTVSS	high polyreactivity
QVHLVESGGGLVQAGVSLRLSCAASGSIFEGNGMGWYRQAPGKERELVAAITFRSGSTYYADSVKGRFTNSRDNAKNTVYLQMNSLKPEDTAVYYCAADEYYQVSAYDYWGQGTKVTVSS	low polyreactivity
QVHLVESGGGLVQAGVSLRLSCPASGIIFWFYAMGWYRQSPGKERQLVAAISGDGDSTYYADSVKGRFTISRDNAKNTVYLQMNSLKPEDTAVYYCAAEWDPVFATDEDDYWGQRTQVTVSS	low polyreactivity
QVHLVESGGGLVQEGGSLRLTSAASGITFVRNTLGWYRQAPGKERELVAAIDSGGNTYADSVKGRFTITRDNAKNTVYLQMNSLKPEDTAVYFCAVDGGEVSSYGYWGQGTQVTVSS	low polyreactivity
QVHLVESGGGLVQSGGSLRLSCAASGRIFYYNAMGWYRQAPGKERELVAAITSSSGSSTYYADSVKGRFTISRDNAKNTVYLQMNSLKPEDTAVYYCAADATFIIRYLSRSDYWGQGTQVTVSS	low polyreactivity
QVHLVESGGPLVQAGGSLRLSCAASGYTFWGNAMGWYRQAPGKERELVAGITGSGVSTYYADSVKGRFTISRDNAKNTVYLQMNNLKPEDTAVYYCARRVVFAHKYATSYFLLEYGYWGQGTQVSVSS	low polyreactivity
